Experimental data: patent US20260061072A1

Molecular target: Human Leukocyte Antigen (HLA) on the surface of human cells (human)
Assay: cell-based or functional assay

## anti-HLA monoclonal antibody clone W6/32 (mouse, ThermoFisher)
  antibody concentration of highest luciferase transduction of SKBR3 cells: 10 µg/mL
